The DeepSol protein solubility set

Assay: soluble on expression in E. coli; label from the status in PepcDB or PDB records

Sequence | soluble on expression in E. coli
MGSDKIHHHHHHMLSTANITMQFGAKPLFENVSVKFGEGNRYGLIGANGCGKSTFMKILGGDLEPTSGQVMKDATTRLGKLSQDQFAFESERVIDTVIMGNTELWEVAAERERIYSQTEMSEEDGMKVADLEVRYAELDGYTAEARAGELLLGLGIPLVQHTQPMSVVAPGWKLRVLLAQALFSDPDVLLLDEPTNHLDINTIRWLEEILRSRSSTMLIISHDRHFLNRVCTHMADLDYGELTLFPGNYDEYMTAATQARERLHADNAKKKAEIAELQQFVSRFSANASKAKQATSRQRKIDKIQLDEVKPSSRVSPFIRFEQTKKIHRHALNAEKLSKAWGDNVLFERFDLQVEAGERVAIIGPNGIGKTTLLNCLVGTMTPDAGEVKWTDAAEVGYFAQDHADDFEGGETLFEWMRQWTTEGEQTVRGALGRMLFSNDDIGKSVKVISGGEQGRMLFGKLALQKPNVLVMDEPTNHLDMESIEALNLALENYPGTLIFVSHDREFVGSLATRIIELKDDDIVDFSGSYDDYLRSQSIYD | not soluble
MSLTTELKTEALPTRTQVDPKHCWDTTLMYANREEWKKDFDLCSSGKDRSPIWPEFSPSHYQIDNPESLLELLSKKFSVERKLDQLYIYAHLIHDQDITNPEGESDYQSIVYLYTLFSQEISWIQPALIALSEEKVAALLSSSVLAPYRFYLEKIFRLSPHTGTANEEKILASSFAALNVSNKAFSSLSDAEIPFGIAKDSNGEEHPLSHALASLYMQSPDQELRRTAYLAQFQRYYDYRNTFANLLNGKVQAHLFEAKARNYPSCLEASLFQHNIPTTVYINLINETKKHTSLINRYFNLKKEALNLKEFHFYDVYAPISQTTSKNYSYEEGVDLVCKSLLPLGTHYVEILRNGLLSNRWVDRYENKHKRSGAYSSGCYDSAPYILLNYTNTLYDVSVIAHEAGHSMHSYFSREAQPYHDAQYPLFLAEIASTFNEMLLMEALSKSDQSKEDKIVIITKTLDTIFATLFRQTFFAAFEYEIHSAAEQGTPLTEEFLSATYGNLQKEFYGGVVTSDSLSALEWARIPHFYYNFYVYQYATGIIAALSFAEKILTQEPGALELYLKFLKSGRSDFPLNILKKSGLDMTTSAPLDKAFAFITKKIDLLSSLLSEDEGHHHHHH | soluble
MGSDKIHHHHHHMNGKTIILANPRGFCAGVDRAISIVERALEEFGAPVYVRHEVVHNKFVVDNLREKGAVFIEDLAEVPPGATLVYSAHGVSKAVQQEAAERGFRVFDATCPLVTKVHKEVARLDAQDCEIIMIGHKGHAEVEGTMGQLAPGKMLLVETVGDVAKLEVRNPDKLAYVSQTTLSVDETKDIIAALNARFPNIRNPHKEDICYATTNRQTAVKELAEQCDIVIVVGSPNSSNSNRLREVAASRGIDAYMVDNASYLQRTWFEGKSKVGVTAGASAPEVLVREVLATIRGWGHETVREGGGAEESIVFVLPKELRREGETKPDLCKR | not soluble
MSLQAHCEEFRVCAMCRVLRVNRSGYYAWLCSPNSERAKEDDRLLGLIKHHWLASGSVYGHRKITTDLRDLGERCSRHRVHRLMRTEGLRAQVGYGRKPRFHGGMQCKAAANLLDRQFDVTEPDTAWASDFTFIRTHEGWMYLAVVIDLFSRQVVGWAMRDRADTELVVQAVLSAVWRRKPNTGCLVHSDQGSVYTSDDWRSFLASHGLVCSMSRRGNCHDNAPVESFFGLLKRERIRRRTYPTKDAARAEVFDYIEMFYNPNRRHGSTGDLSPVEFERRYAQRGSEGHHHHHH | not soluble
MNCESLLTALDVSTLLSTLSSPEKEHRRKRRRGEVANPSNTLDALVARKADDQPFEKRYLSEQEAIEGPDDEIEMKKMELDPDVSTRTCSTCGYQGKWVSEMIRHKRVHTSERPFKCRYCSRTSKWKADLIRHVAKTHGIRVVSKYSRSKVFDATNSSMDSSCSSDSDRCIISEKRTVFYRCQLCSFEDERVSVLNSHVSHLHNTSPCVCRCGAKFEDVQGALAHSNGPCSHVDMIYNVMPTYEKASPLSPCRSESSSDSGIQTDPEEEASIITSSLPTPQLGSSPLLLSPTLPVTPSFLPDIQSALLSLQPNPLMSLYLASLLQSSLLNSPTIPTSFPQIIPTTILTPSQQDEMVDVEM | not soluble
MECSQEDVVNDFIALEKIGSEVDINLDGVIKSKECSNTNEADIISNLITAIEESLSCTSVCTAVSLETVAQKLDAYADPSLNTQMSFSTASDLSSMEQDYVKASDDPFDLNHQPSPLQVWRDQGKITGFQMMCDDQKVTVVDSLECLAQSEQHLEPVYFDPRVNLAIPCPPDDFEILEDYGSTSNASVNSDDASTAELGPTSEEFEEWVRKIEQNY | not soluble
MCVNFIPPSRGQLREWLGCDPGDGQWPDEAWQDYPAPILTRDGLRFASYGFIPKRHQPAGVRLSTMNARVETIGQLRSYRDAWRNCQLCLVPMQAFYEPCYESGRAVRTKISMADGAPFAVAGLWREWREADGSISLAFTQITIHADGHAVMGRMHRPGDEKRSLAIIPAALYQAWLHCRNPEQARAFLQLFSAEAMRAEGEIADPPRQGSLFDLEHHHHHH | not soluble
LKLPDMRDVVGQPEARFAAEVAAAGGHHMLMIGPPGSGKSMIAERIPSLLPELSPQQMIEATAVHSVVGRTFSGPVSRAPFISPHHNVSKAALLGGGSGSPLPGAISLAHHGVLFLDEVSEIPASILDSLRTPLEYGSIRIIRSRHDVTFPAQFQLILAANPCRCG | not soluble
QMQMGLSSFDRVMDVVDMTAEHPDPEHPLDLPAGPLSLELENVHFDGILNGTTLTVPAGDTVAIVGPPGSGKTMAVQLLCGFYRPESGQIRLGGVDTTQLRRHDLRNAVSCVFDDPFLYSASIRDNIAMGRNVTDVEIERAARIAQAHDFITALPHGYDEIVGERGLTLSGGQRQRIAIARAVLERPRVLILDDATSAIDVTTEHAIYEQLSTELSDVTILAVAHRNSTLSLADSVALIDNGRIVDHGSLSYMRANPQFVYLMDVQEHLRKRNSHEPFVPFDDGTEPEWTQLWPEIASSQHDSRLTINSSAMKAAASVAGANPAAGGRGRGRGGMAASIPATPELLARVDALPPTRDTPGPRPLLDHDHGKVTAHQLFASVR | not soluble
MGHHHHHHENLYFQSHLYFQSHINEQEREIEKLKRQMAEYGAIIKSLQFRQNSLEDTFIPDLTPKVEPSVNPTGCLLGSNAVHLMRDIKKECDYLGIPDPVPATKPTTQAQDDSQKKAKRSCFGRLFTGPFRRGTSAMKTADEYEKDDRLEELYAQLERDPDP | not soluble
MGSDKIHHHHHHMKLNTIDYLAPDSAERFVESLRETGFGVLSNHPIQKQLVEDIYKEWYNFFQSEQKHDFLFKSETHDGFFPASISETAKGNNVKDIKEYYHVYPWGRIPDSLRANILAYYEHANTLAAELLSWIEKYTPADVAEKYSIPLPDMIAQSQQTLLRILHYPPMKGDEEMGAIRAAAHEDINLITILPAANEPGLQVKTKTGEWIDVPSDFGSIIINIGDMLQEASGGYFPSTSHRVINPEGTDKTKSRISLPLFLHPNPEVVLSERYTADSYLQERLRELGVI | not soluble
SASFQRKGLQARILSTEEEEKLKRDQALVSAFKQQKLEKEAQKNWDLFYKRNSTNFFKDRHWTTREFEELRSCREYEGQKLTLLEAGCGVGNCLFPLLEEDLNLFAYACDFSPRAVDYVKQHPLYNAERCKVFQCDLTRDDLLDHVPPESVDAVTLIFVLSAVHPEKMRLVLLNVYKVLKPGRSVLFRDYGLNDHAMLRFKAGSKLGENFYVRQDGTRSYFFTDEFLAQLFVDAGYEEVVNEYVFRETVNKKEGLCVPRVFLQSKFRKPPKDPAPTSDSASL | soluble
MAHHHHHHMSETSACPLNDFFDIDEENNLDEIKKEEKDVFSGNFLSYIYNQFEFCCINFFDELKKKDKRKNITLKKNYSDGYSKNDNGQCYYNVFDKILKKDVDTIKEVSLHSIYFNPHADWCECAHEFNLELNHEEAEFCIFNFFLKMYRYEERNKDLLLSILLECLYSKKDMKKAFHIQKENLKFLKEIKNIETSNFKESLNELINIIENTNFIQFNANEKKDMQKYYFKLYIIIKIKYPYGIYIFNCDDVYDIVVIDCNTFMQNKPKIMSFLSLRKFISFLNNIYSININEENIYDSFPIIVYESKECYHLSHSHLPLNLTACTPKEKKKNSVKNHLNQSGNENENENKD | not soluble
